T1: MSMEG_3765 (TetR3765) (Mycobacterium smegmatis mc2155, UniProt A0QYS0 1-211)
T1 sequence: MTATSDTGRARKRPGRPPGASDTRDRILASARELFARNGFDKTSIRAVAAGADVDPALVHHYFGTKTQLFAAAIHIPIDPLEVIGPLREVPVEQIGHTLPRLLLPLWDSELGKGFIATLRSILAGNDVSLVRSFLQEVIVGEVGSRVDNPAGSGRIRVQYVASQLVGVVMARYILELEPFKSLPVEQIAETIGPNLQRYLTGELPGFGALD

T2: MSMEG_3765 (TetR3765) (Mycobacterium smegmatis mc2155) (UniProt A0QYS0)
T2 sequence: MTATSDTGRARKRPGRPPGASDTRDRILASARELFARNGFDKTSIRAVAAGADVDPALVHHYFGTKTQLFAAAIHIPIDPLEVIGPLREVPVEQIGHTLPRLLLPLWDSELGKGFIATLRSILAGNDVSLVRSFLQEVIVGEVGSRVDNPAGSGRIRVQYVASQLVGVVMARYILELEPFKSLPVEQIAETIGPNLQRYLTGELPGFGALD

B1: fragment d 36 bp TetR motif (dsDNA)
DNA 1: AATTCATTGCATGATGACTTCATCGCGCGATGAATT
DNA 2: AATTCATCGCGCGATGAAGTCATCATGCAATGAATT

In one series the target is T1, MSMEG_3765 (TetR3765). Put plainly: EMSA; 1.5-20 pmol protein; 40 mM HEPES pH 8.0, 150 mM NaCl, 20 mM MgCl2, 10% glycerol, 37 C, 20 min; 8% native PAGE, SYBR Safe. To be noted: protein: recombinant; tags: C-terminal His (pET-22b(+), NdeI-XhoI); chain copies: 2.
Take B1: the binding result is recorded as “binds”.

The target in the next series is T2, MSMEG_3765 (TetR3765) (Mycobacterium smegmatis mc2155). Put plainly: EMSA. The note with it: 40 mM HEPES pH 8.0, 150 mM NaCl, 20 mM MgCl2, 10% glycerol, 37 C, 20 min; 8% native PAGE, SYBR Safe. (In general: In EMSA bound probe runs differently from free probe, usually more slowly.)
As for “CCGGATCCGACCTCGACCACCATCGCACGCACACCCCGTCCGGCAATAGTTGCGCCGAGCAGCCGATGCGCGGCCGCGACCGGGTCGATCGCCAGTTCCTCAGCGTTCATCAGAGACGATTGTGCACCGGCCCTTGACAAACCCGCACGACTGGCGGATATTCATCACATGATGATTTCATCAAGTGATGAATTACTTCGCGACGGTGGGGCCCG (double strand) [Rv1687c upstream fragment 200 bp]”, the binding entry is listed as “binds”.

For the molecule “CGGGATCCGATCCTGCGGGGCGCCGACGACCACACGCTGTCGCTGATCACCGAGTACGTCGACGTCGCACGGTTGCGGGCCGACATTATCGGCCTGCTGGAGTCCGCCGCCTGAGCCAGGCGTCGCCGACGCCGAAATGTGTCGACGCATCGTCTTCCCACCGGACGACGGCAGGCCTAGAATTCATTGC (double strand) [fragment b 182 bp]”, the binding result was “no binding”.

With “CGGGATCCGATCCTGCGGGGCGCCGACGACCACACGCTGTCGCTGATCACCGAGTACGTCGACGTCGCACGGTTGCGGGCCGACATTATCGGCCTGCTGGAGTCCGCCGCCTGAGCCAGGCGTCGCCGACGCCGAAATGTGTCGACGCATCGTCTTCCCACCGGACGACGGCAGGCCTAGAATTCATTGCATGATGACTTCATCGCGCGATGAATTGTCAGCGACGGGGCCCG (double strand) [MSMEG_3762 upstream fragment 218 bp]”, the binding entry is “binds”.

Take “CGGGCCCGATCCACGCTGGCCATGGCATCGGTGGTCGGTTCGTCGCTCATGTCGTCAAGTTAGCTTGACGACATGAGCGGCGTCAAGAAAACTTGACACAAAAGGAACAGGCACAATCGCATCGATGAGCGTCGACCTGCTGACCGGTGATCCGATCGCCGCGGCACGTCGGCTGATCGGCGCCCACCTCGTCGGGCGGGACGTCACCGCCACGATCGTCGAGGTCGAGGCCTACGGCGGACCGCCGGACGGCCCGTGGCCGGACGCGGCGTCGCATTCGTTCCGGATCCCG (double strand) [MSMEG_3760 upstream fragment (from GFP assay) 277 bp]”: the binding entry is “no binding”.

For “CTGCTGGAGTCCGCCGCCTGAGCCAGGCGTCGCCGACGCCGAAATGTGTCGACGCATCGTCTTCCCACCGGACGACGGCAGGCCTAGAATTCATTGC (double strand) [fragment c 97 bp]”, the binding result is given as “no binding”.

Consider “CTGCTGGAGTCCGCCGCCTGAGCCAGGCGTCGCCGACGCCGAAATGTGTCGACGCATCGTCTTCCCACCGGACGACGGCAGGCCTAGAATTCATTGCATGATGACTTCATCGCGCGATGAATTGTCAGCGACGGGGCCCG (double strand) [fragment a 133 bp]”, for which the binding entry is given as “binds”.

With “GACGCTCATCGATGCGATTGTGCCTGTTCCTTTTGTGTCAAGTTTTCTTGACGCCGCTCATGTCGTCAAGCTAACTTGACGACATGAGCGACGAACCGACCACCGATGCCATGGCCAGCGTGGATCGGGCCCG (double strand) [MSMEG_3760 upstream fragment 127 bp (negative control)]”, the binding result is listed as “no binding”.

The values are drawn from publication PMC5660060.
